The data set concerns ATP. Nature of the data set: switch fluorescence ratio, 500 uM ATP over buffer (Cy3 cluster intensity, sum of 5 cycles each) (fold (ratio)); higher = stronger signal-on switching upon ATP binding; sequences stand for … in TCGTCGGCAGCGTCAGATGTGTATAAGAGACAGTTTTTTTTTTTTTTTTTTTTTTTTT…TC. To be noted: aptamer strand: ATP DNA aptamer (quencher-CACCTGGGGGAGTATTGCGGAGGAAGG + anchor), 100 nM annealed; ATP concentration: 500 uM. An outline of the steps: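 Imaging in selection buffer was followed by imaging after 15 min with 500 uM ATP at 22 °C, for Cy3-labelled switching-strand clusters annealed to 100 nM quencher-labelled ATP aptamer on a modified Illumina MiSeq flow-cell. Five of these buffer/ATP cycles ran, separated by NaOH stripping and re-annealing. The fluorescence ratio per cluster is summed target-cycle over summed buffer-cycle Cy3 intensity, averaged per switch-domain sequence; clusters outside 100-1000 RFU were removed.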

In the supplement of paper PMC10126150 one finds switch fluorescence ratio data, which are given here for 120 sequences.

± gives the standard deviation of the averaged measurements.
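Further: ATP exposure 15 min at 22 °C before imaging.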

Take CCGGGGGGAA: the switch fluorescence ratio was 1.03 ± 0.063.
In the case of GCATCCTGGA it was 0.969 ± 0.058; in that of CAGAGGGCGG, 0.981 ± 0.047; in that of GTTGATAACT, 1.009 ± 0.0012.
Next, TGGTTTACTC: 1.14 ± 0.18; CGTAACATGG: 1.022 ± 0.0099.
In the case of TTGGTTCTCT it was 1.01 ± 0.011; in that of GGGGGAAGGC, 1.15 ± 0.23.
CGTGTTGTTT: the switch fluorescence ratio worked out at 1.003 ± 0.01.
In the case of TTTTAGTGTT it was 1 ± 0.013.
With AAAATCGTGA, the switch fluorescence ratio came out at 1.009 ± 0.0097.
Take TTTGCAGCC: the switch fluorescence ratio was 1.05 ± 0.066.
Take GTTTGTACCT: the switch fluorescence ratio stood at 1.13 ± 0.1.
Consider TCGTAGGGTC, for which the switch fluorescence ratio stood at 0.982 ± 0.047.
In the case of TGGGAGAAAA, the switch fluorescence ratio worked out at 1.0069 ± 0.00087.
Next, AGACTGGGGC: 1.03 ± 0.03; GACTTAGTGC: 1.05 ± 0.012.
In the case of GGGTGGATGG, the switch fluorescence ratio was found to be 0.985 ± 0.024.
Next, ACAAGTGTTC: 1 ± 0.051.
Next, TATTTGTTCT: 1 ± 0.024; GGGAGTGGGT: 0.99 ± 0.024.
Take TTATTATGGG: the switch fluorescence ratio is 0.987 ± 0.0073.
In the case of AGGGATCTGC it was 0.966 ± 0.028; in that of CCTTCTCGTC, 1.34 ± 0.096.
In the case of GATAGACTTA it was 0.949 ± 0.03.
GATAGGTGGT: the switch fluorescence ratio was 0.9691 ± 0.0046.
In the case of AGAAAAGTGT it was 1.0276 ± 0.00047; in that of TGAAAGTTGT, 1.02 ± 0.029.
In the case of CGGGAGGACT, the switch fluorescence ratio is 0.989 ± 0.057.
In the case of AGTACGCAAG it was 1.12 ± 0.039.
On to TGGAATTTTT, for which the switch fluorescence ratio was 0.987 ± 0.03.
As for GGATGGGCTG, the switch fluorescence ratio came to 1 ± 0.094.
In the case of TATTTCGTTG it was 0.998 ± 0.059; in that of ATATGATAGA, 0.9921 ± 0.0026; in that of TCACGTAGGC, 1.04 ± 0.053.
Next, CAAAGTGGTG: 0.97 ± 0.053; GGGAGACGGT: 1.02 ± 0.068; TGATAGTAT: 0.96 ± 0.037.
In the case of TTTTTTTGTT it was 1 ± 0.034; in that of TAACGCATCG, 0.9887 ± 0.0012; in that of CATTGTGCCT, 1.04 ± 0.018.
GATTTAGTAA: the switch fluorescence ratio was determined as 0.9759 ± 0.0069.
In the case of TTTTCAACTA it was 0.9949 ± 0.0024.
For TCTGGGTAGC, the switch fluorescence ratio worked out at 1 ± 0.061.
Next, TGGGGTGCAC: 0.957 ± 0.024; CTACGTCATT: 1.41 ± 0.095.
Take TAATTCAATG: the switch fluorescence ratio was 0.997 ± 0.066.
Next, ATGGGGGAGG: 1.009 ± 0.0031; TTGTGAGTGT: 1.01 ± 0.034; CTCGTAAACG: 1 ± 0.02.
Next, TTTTGGTGTT: 1.02 ± 0.036; TTGATATCTA: 0.982 ± 0.049; TGTGGGAGGG: 0.998 ± 0.042.
Next, TTTGGCGGAA: 1.04 ± 0.011; AAAGGTTTGT: 1.02 ± 0.024; TTTTTGTCGT: 0.983 ± 0.025.
With TAAAGAAGAG, the switch fluorescence ratio stood at 0.977 ± 0.03.
In the case of AAGGGGGAGT it was 0.996 ± 0.028; in that of TATATGAGAC, 1.003 ± 0.0083.
Regarding AGGGGGAGAT, the switch fluorescence ratio was 1.02 ± 0.042.
In the case of GTTTTGTTGA, the switch fluorescence ratio is 1.02 ± 0.021.
In the case of GATATCCGTA, the switch fluorescence ratio worked out at 0.962 ± 0.015.
For GTGTACTCGA, the switch fluorescence ratio worked out at 1.04 ± 0.019.
Next, CGGGGCACGT: 1.16 ± 0.23.
In the case of GCTTGGGGGA, the switch fluorescence ratio was determined as 0.998 ± 0.041.
In the case of AAGGGGGGAG it was 0.986 ± 0.026; in that of TGGGGGAAAC, 1.01 ± 0.032.
In the case of ATGTCCGAGG it was 1.028 ± 0.0019.
In the case of TTCCGCCGCT it was 2.34 ± 1.8; in that of GGAGCTTTGG, 0.998 ± 0.035.
In the case of TTCCCCAGTT, the switch fluorescence ratio turned out to be 1.03 ± 0.036.
GAAAAAGGTT: the switch fluorescence ratio was 0.969 ± 0.011.
In the case of AGGACGGCAG it was 0.964 ± 0.13.
As for TGATGAAAGA, the switch fluorescence ratio is 0.996 ± 0.021.
Turning to ATTGGGCTGT, the switch fluorescence ratio stood at 0.993 ± 0.016.
Take AAGTTCGGG: the switch fluorescence ratio turned out to be 1.035 ± 0.0057.
For the sequence GCCTTACGTC, the switch fluorescence ratio stood at 1.05 ± 0.052.
With AAAGAGTCGT, the switch fluorescence ratio was determined as 0.9883 ± 0.0027.
Take GTGGCGTGGA: the switch fluorescence ratio stood at 0.991 ± 0.021.
For the sequence AGGTCGGGGA, the switch fluorescence ratio amounted to 1.05 ± 0.056.
Next, GAAATACGGT: 1.19 ± 0.17; GACACTGCCC: 1.13 ± 0.048; CCATCTCTGG: 0.979 ± 0.022.
As to AGCTAAAGGC, the switch fluorescence ratio amounted to 1.03 ± 0.032.
For AGTCGTATTT, the switch fluorescence ratio amounted to 0.963 ± 0.019.
With GCTGCAGGGC, the switch fluorescence ratio stood at 1.37 ± 0.44.
Next, CCATTAAACT: 1.014 ± 0.008; AGGGTATTCG: 0.9981 ± 0.0049; CATGCGTTG: 0.9898 ± 0.0016.
Next, GTACGGTTTT: 0.994 ± 0.073.
Turning to TTCAATCCGT, the switch fluorescence ratio is 1.17 ± 0.24.
As for TAATGTGTCG, the switch fluorescence ratio is 1.021 ± 0.0042.
Next, TAAATTATGG: 0.996 ± 0.021.
Turning to CACGTTGCCT, the switch fluorescence ratio stood at 0.979 ± 0.052.
Next, TTGTATTAGG: 0.968 ± 0.05; TGTTCGCATG: 1.08 ± 0.032; CGTATAGCGG: 1.02 ± 0.076.
In the case of CACATATTCC it was 1.14 ± 0.035; in that of TGCTTTTTGG, 1.01 ± 0.032; in that of TCGCGGGGTG, 1.02 ± 0.056.
Consider GTAGAAATTC, for which the switch fluorescence ratio came to 1.24 ± 0.048.
For TCTGGGTGAT, the switch fluorescence ratio came out at 1.03 ± 0.015.
In the case of AAATTGGTTG it was 0.976 ± 0.014; in that of GGGGCTTCTT, 0.9823 ± 0.0038.
In the case of GCTTTAGGAT it was 1.01 ± 0.04; in that of CTTAGGGGGA, 1 ± 0.012; in that of CGGGGGCGGA, 1.04 ± 0.052.
Next, TTGTCTCTTT: 0.9932 ± 0.0062.
On to TTAGGTTTGT, for which the switch fluorescence ratio worked out at 1 ± 0.031.
Next, CGTGCGAAGG: 1.03 ± 0.049; CACTGGGGAT: 0.981 ± 0.046; ATGAAGATTA: 0.987 ± 0.043.
On to CCAGAAGGGT, for which the switch fluorescence ratio worked out at 0.974 ± 0.02.
For the sequence CTCGTCCTTA, the switch fluorescence ratio was found to be 1.019 ± 0.0051.
On to AGTTATGTGG, for which the switch fluorescence ratio stood at 1 ± 0.056.
Next, TTTTGTGGG: 0.966 ± 0.046; CTCATTTATT: 0.98 ± 0.064.
On to GTTATTGAGT, for which the switch fluorescence ratio came to 1.007 ± 0.0089.
Next, GTCAGGGGGG: 1.02 ± 0.081.
Next, TAGAAAAGGC: 1.15 ± 0.21.
